In FireProtDB (doi:10.1021/bi00165a022):

Conditions: Escherichia phage lambda, Thermal, DSC, Potassium phosphate 20 nM, whole UniProt chain shown

B1: Regulatory protein cro wild type, P03040 (protein)
chain: MEQRITLKDYAMRFGQTKTAKDLGVYQSAINKAIHAGRKIFLTINADGSVYAEEVKPFPSNKKTTA
Tm (pH 5.18): 35.5 °C
heat capacity change of unfolding (pH 5.18): 1.51 kcal/mol/K
unfolding enthalpy (calorimetric) (pH 5.18): 34.9 kcal/mol
unfolding enthalpy (van 't Hoff) (pH 5.18): 37.3 kcal/mol
Tm (pH 5.48): 38 °C
heat capacity change of unfolding (pH 5.48): 1.61 kcal/mol/K
unfolding enthalpy (calorimetric) (pH 5.48): 39 kcal/mol
unfolding enthalpy (van 't Hoff) (pH 5.48): 40.7 kcal/mol
Tm (pH 6): 44 °C
heat capacity change of unfolding (pH 6): 1.66 kcal/mol/K
unfolding enthalpy (calorimetric) (pH 6): 48.1 kcal/mol
unfolding enthalpy (van 't Hoff) (pH 6): 51 kcal/mol
Tm (pH 7): 46.2 °C
heat capacity change of unfolding (pH 7): 1.36 kcal/mol/K
unfolding enthalpy (calorimetric) (pH 7): 52.9 kcal/mol
unfolding enthalpy (van 't Hoff) (pH 7): 52.4 kcal/mol
